Data on 15 sequences can be found in the DeepSol protein solubility set.

The data set in a line: soluble on expression in E. coli; label from the status in PepcDB or PDB records.
Take “MGSSHHHHHHSSGLVPRGSMAQGLIEVERKFLPGPGTEERLQELGGTLEYRVTFRDTYYDTPELSLMQADHWLRRREDSGWELKCPGAAGVLGPHTEYKELTAEPTIVAQLCKVLRADGLGAGDVAAVLGPLGLQEVASFVTKRSAWKLVLLGADEEEPQLRVDLDTADFGYAVGEVEALVHEEAEVPTALEKIHRLSSMLGVPAQETAPAKLIVYLQRFRPQDYQRLLEVNSS”: the “soluble on expression in E. coli” value was “soluble”.

“MGSSHHHHHHSSGLVPRGSTKVKYVDKIHIGNYEIDAWYFSPFPEDYGKQPKLWLCEYCLKYMKYEKSYRFHLGQCQWRQPPGKEIYRKSNISVHEVDGKDHKIYCQNLCLLAKLFLDHKTLYFDVEPFVFYILTEVDRQGAHIVGYFSKEKESPDGNNVACILTLPPYQRRGYGKFLIAFSYELSKLESTVGSPEKPLSDLGKLSYRSYWSWVLLENLRDFRGTLSIKDLSQMTSITQNDIISTLQSLNMVKYWKGQHVICVTPKLVEEHLKSAQYKKPPITVDSVCLKWAPPK”: the “soluble on expression in E. coli” value was “soluble”. On to “MGSSHHHHHHSSGRENLYFQGMKLATLKDSTRDGKLVVVSKDLTRCSEVGHIARTLQAALDDWAHAGPRLERVAEGIETGAQPTMRFHEHDAASPLPRAFQWADGSAYVNHVELVRKARNAEMPASFWTDPLIYQGGSDSFLGPRDPILMADDAWGIDMEGEAAVIVDDVPMGATLDEAKAAIRLVMLVNDVSLRGLIPGELAKGFGFYQSKPSSAFSPVAVTPEELGEAWDGGKLHLPLHVDLNGEPFGRANAGIDMTFDFPQLIVHAARTRPLSAGTIIGSGTVSNKLEGGPGRPVSEGGAGYSCIAELRMIETIEGGAPKTQFLKFGDVVRIEMKDRTGHSIFGAIEQKVGKYERG”, for which the “soluble on expression in E. coli” value is “soluble”. As to “MGSSHHHHHHSSGRENLYFQGMQCNTSIEDGLDGGDITFPSYSPEAEAQNRFLPRSEFPSVRQLVISKQKSRRRREENVFVGKMEDVLVKWRPPASSHRGAIEAINGTHPYQLSTAQFNSRRSDPFGSTKRDESVRSIVESFTDWWKRNSKMFFRDEEEGVRTEHSASQDDQELQLFEEDLFSFHLSPNDMSTRNSEHQVQTPVLFPYEAPTRTKQNPAERKVIEIGDGEELSIYRDVYSNPIPVSYLDTLNLNHSMSVRQTQQQQQQRQQQQYVDSSSAFQCCTDSNWARIFFCHHD”, the “soluble on expression in E. coli” value is on record as “soluble”. As for “MGTEFNGLFDEWAHTYDSFVQGEDIQYKEVFAHYEDILEDVVNKSFGNVLEFGVGTGNLTNKLLLAGRTVYGIEPSREMRMIAKEKLPKEFSITEGDFLSFEVPNSIDTIVSTYAFHHLTDDEKNVAIAKYSQLLNKGGKIVFADTIFADQDAYDKTVETSKRKRFPPVSKRFANGILYTYSSYADYFLEHHHHHH”, the entry is “soluble”; as for “MGTKTKKTLFNVDEQMKAIAAQFETLQILNEKGEVVNEAAMPELSDDQLKELMRRMVYTRVLDQRSISLNRQGRLGFYAPTAGQEASQLASHFALEAEDFILPGYRDVPQLVWHGLPLYQAFLFSRGHFMGNQMPENVNALAPQIIIGAQIIQTAGVALGMKLRGKKSVAITYTGDGGASQGDFYEGMNFAGAFKAPAIFVVQNNRYAISTPVEKQSAAKTVAQKAVAAGIYGIQVDGMDPLAVYAATAFARERAVNGEGPTLIETLTFRYGPHTMAGDDPTRYRTKDIENEWEQKDPIVRFRAFLENKGLWSQEVEEKVIEEAKEDIKQAIAKADQAPKQKVTDLMEIMYEKMPYNLAEQYEIYKEKESK”, “not soluble”; as for “MGVEQILKRKTGVIVGEDVHNLFTYAKEHKFAIPAINVTSSSTAVAALEAARDSKSPIILQTSNGGAAYFAGKGISNEGQNASIKGAIAAAHYIRSIAPAYGIPVVLHSDHCAKKLLPWFDGMLEADEAYFKEHGEPLFSSHMLDLSEETDEENISTCVKYFKRMAAMDQWLEMEIGITGGEEDGVNNENADKEDLYTKPEQVYNVYKALHPISPNFSIAAAFGNCHGLYAGDIALRPEILAEHQKYTREQVGCKEEKPLFLVFHGGSGSTVQEFHTGIDNGVVKVNLDTDCQYAYLTGIRDYVLNKKDYIMSPVGNPEGPEKPNKKFFDPRVWVREGEKTMGAKITKSLETFRTTNTL”, “soluble”.

For the sequence “MGVKRKKMGKVAGFTEWTAEDLEAFRARWPIGTAQRLALELYQWTGARCVDVIRLGPQMVGRDGVLTYVQQKTGNPAHVPWTCPAFGLEEQRADLMRCLPVGSPVYMLTEYGKPRTQKGVSQWFSAAAREAGLESRTAHGLRKYRMNALAEHGASVLVMQSWVGHTTLLEVQEYTRRADRRRVISGGHAAALEHHHHHH”, the “soluble on expression in E. coli” value is recorded as “not soluble”. As for “MHDTMHKIFGATPPIFSYTPILTMNLCIAKATPNVCHSTGNLCKAEMDNVTSWVYDKTQGLFITGE”, the “soluble on expression in E. coli” value is reported as “not soluble”. Take “MHFKTKLKNRRSEVNTCLCIGLDPDEDDIKNFMKNEEQNGYKNIKNNMNSNNNGIENIIKIGKEILLTDGENIQNLSEEDKFFYFFNHFCFYIINNTKEYALVYKMNFAFYIPYGSVGINALKNVFDYLNSMNIPTMLDMKINDIGNTVKNYRKFIFEYLKSDSCTINVYMGTNMLKDICFDYEKNKYYSAYVLIKTTNKDSFIFQNELSINDKQAYIVMADETQKMATELKIEQNNEFIGFVVGSNAFEEMKIIRNKFPDSYILSPGIGAQNGDLYKTLKNGYNKDYEKLLINVGRAITKSPDPKKSSESYYNQIIQIFKDIENGDNIEQV”: the “soluble on expression in E. coli” value is on record as “soluble”. “MHGLKRSLMIRTVCRGKATTAGADLPQSSQEIEVTTPKSENVPAKSANASTVYRPPYYRKPHQHHEPKHMLQEEFVNAGDASGAGVRVFDYYKTAEMVHSMPTIKEKIDFVSPYERPWTRAEKTWRRDWHPTLMATRKAWGIPPTPAHFDTLDYYKYLTKTRVENESLDDFYHGLRPPTADLQTSFQNTLKSMEFGDGINFSDEDTQKLFGSLIDDAMGGIAHNVSRLADHRVAYDVESEAFWVRSGFMFLYDEEEIGTRDVKRRLNNFPKFIGDDRRKLGELAFVHRDKLAAQVRSKEPSAPLHSFDSEDAKLPIFDTNYNFEETLFSPKVYNLWPDQEPLWQCPGYHADSGESHTYGILGVKSLRPLRKRIAHWMGWENENELESSEEAKQMLDDGARSQAIISMFTTLCAQAHTHGFTQYTDITRSFTSQLVLSDGINFWFAIGQLNTIAINVECDGFVNPRTNYIRIDGPYRLFDYCDKNGQYLSVQEEIDAENKVQRKIAPGLNEKVLERVTQMLMKQ”: the “soluble on expression in E. coli” value is given as “not soluble”. For the sequence “MHHHHHHAADPPPVHDTDGHELRADANYYVLSANRAHGGGLTMAPGHGRHCPLFVSQDPNGQHDGFPVRITPYGVAPSDKIIRLSTDVRISFRAYTTCLQSTEWHIDSELAAGRRHVITGPVKDPSPSGRENAFRIEKYSGAEVHEYKLMSSGDWCQDLGVFRDLKGGAWFLGATEPYHVVVFKKAPPA”, the “soluble on expression in E. coli” value is reported as “soluble”. “MHHHHHHHHHHISSASGESQMSLDEIEDVYHTRPGYRPEEYRWGQGGAKIIDYHIQSAGVDFPPSLTGNQQTDFLMKVVFEYDFDCVVPGILIKTLDGLFLYGTNSFLASEGRENISVSRGDVRVFKFSLPVDLNSGDYLLSFGISAGNPQTDMTPLDRRYDSIILHVTKSMDFWGVIDLKSSFTSYQ”: the “soluble on expression in E. coli” value was “soluble”. Turning to “MHHHHHHLVPRGSMLDFEKPLFEIRNKIESLKESQDKNDVDLQEEIDMLEASLERETKKIYTNLKPWDRVQIARLQERPTTLDYIPYIFDSFMELHGDRNFRDDPAMIGGIGFLNGRAVTVIGQQRGKDTKDNIYRNFGMAHPEGYRKALRLMKQAEKFNRPIFTFIDTKGAYPGKAAEERGQSESIATNLIEMASLKVPVIAIVIGEGGSGGALGIGIANKVLMLENSTYSVISPEGAAALLWKDSNLAKIAAETMKITAHDIKQLGIIDDVISEPLGGAHKDIEQQALAIKSAFVAQLDSLESLSRDEIANDRFEKFRNIGSYIE”, the “soluble on expression in E. coli” value is reported as “soluble”. As for “MHHHHHHSSGRENLYFQGPKCIQCGQYLDDPDLKYGQHPPDAVDEPQMLTNEKLSIFDANESGFESYEALPQHKLTCFSVYCKHGHLCPIDTGLIEKNIELFFSGSAKPIYDDDPSLEGGVNGKNLGPINEWWITGFDGGEKALIGFSTSFAEYILMDPSPEYAPIFGLMQEKIYISKIVVEFLQSNSDSTYEDLINKIETTVPPSGLNLNRFTEDSLLRHAQFVVEQVESYDEAGDSDEQPIFLTPCMRDLIKLAGVTLGQRRAQAR”, the “soluble on expression in E. coli” value is “soluble”.
